{"source": "patent US20220249814A1", "about": "“METHODS AND DEVICES FOR TREATING A DISEASE WITH BIOTHERAPEUTICS” (PROGENITY, INC., priority 2018, published 2022)", "key": {"[1]": {"assay": "Example 3 blood insulin pharmacokinetics after SC or intra-jejunal jet delivery", "type": "in vivo, Yorkshire female swine", "experimental": "A total of 18 Yorkshire female swine in good health and weighing 60-70 kg each were included in this study. Swine were divided into two groups with 9 animals per group. […] A sham surgical laparotomy was performed. […] The jet delivery device was configured with the single nozzle in an axial orientation.\nSwine were divided into two groups with 9 animals per group. […] In all 18 animals, a laparotomy procedure was performed to expose the abdominal cavity. Animals remained under anesthesia during the entire procedure for the PK/PD study.\nFor the laparotomy in group 02, a small segment of the jejunal mucosa and serosa was exposed by midline laparotomy and the jet delivery device was inserted through antimesenteric incision.\n(§1) Blood samples were kept on wet ice until centrifugation and separation of plasma. […] Glucose was monitored every five (5) minutes during the study by portable glucose analyzer (StatStrip (SS) hospital glucose monitoring system (Nova Biomedical, Waltham, Mass.)). At each time point, approximate 0.1 mL of blood was drawn and immediately placed on a glucose monitoring test strip, and the whole blood glucose concentration was measured by the SS in triplicate.\nThe animals were anesthetized for the entire ECP."}, "[2]": {"assay": "Example 3 euglycemic clamp pharmacodynamics (blood glucose, dextrose infusion rate)", "type": "in vivo, Yorkshire female swine", "experimental": "as §1\nA euglycemic clamp procedure (ECP) was employed to compare pharmacokinetics and pharmacodynamics of regular human Insulin (NOVOLIN® R) delivered subcutaneously (SC) in the neck versus intra-jejunally (IJ) by the jet delivery device in the small intestine. ECP was used to quantify the amount of glucose required to maintain normoglycemia after exogenous bolus of insulin. […] The animals were anesthetized for the entire ECP."}, "[3]": {"assay": "Example 6 dulaglutide plasma pharmacokinetics, ID via 2-nozzle device vs IV vs SC", "type": "in vivo, female Yorkshire pigs (Sus scrofa domesticus)", "from_the_text": "The study design is shown below in Table 35.\nBlood samples were kept on wet ice until centrifugation. […] All samples were maintained chilled throughout processing."}, "[4]": {"details": "baseline dose, Admin. SC (Table 17); cited from earlier work"}, "[5]": {"details": "IJ administration by jet delivery device (~40 U), Average of animals"}, "[6]": {"details": "IJ administration by jet delivery device (~40 U), animal 18P17"}, "[7]": {"details": "IJ administration by jet delivery device (~40 U), animal 18P22"}, "[8]": {"details": "IJ administration by jet delivery device (~40 U), animal 18P23"}, "[9]": {"details": "IJ administration by jet delivery device (~40 U), animal 18P25"}, "[10]": {"details": "IJ administration by jet delivery device (~40 U), animal 18P28"}, "[11]": {"details": "IJ administration by jet delivery device (~40 U), animal 18P33"}, "[12]": {"details": "IJ administration by jet delivery device (~40 U), animal 18P36"}, "[13]": {"details": "SC administration, animal 18P15"}, "[14]": {"details": "SC administration, animal 18P16"}, "[15]": {"details": "SC administration, animal 18P19"}, "[16]": {"details": "SC administration, animal 18P20"}, "[17]": {"details": "SC administration, animal 18P34"}, "[18]": {"details": "SC administration, animal 18P35"}, "[19]": {"details": "ID via ingestible device, 320 psig"}}, "note": "Marks after values point to notes of the source that are not given here.", "data": [{"molecule": "Novolin® R: regular human insulin (NOVOLIN® R)", "values": [{"measurement": "AUC of blood insulin, SC vs IJ group", "setting": "[1]; AUC0-420 min", "result": "higher than that of the IJ administration group"}, {"measurement": "Cmax blood insulin", "setting": "[1]; [5]", "result": 77.40, "unit": "uIU/mL"}, {"measurement": "Tmax blood insulin", "setting": "[1]; [5]", "result": 55.63, "unit": "min"}, {"measurement": "Cmax blood insulin", "setting": "[1]; IJ administration by jet delivery device (~40 U), animal 18P14", "result": 96.77, "unit": "uIU/mL"}, {"measurement": "Cmax blood insulin", "setting": "[1]; [6]", "result": 5.03, "unit": "uIU/mL"}, {"measurement": "Tmax blood insulin", "setting": "[1]; [6]", "result": 50, "unit": "min"}, {"measurement": "Cmax blood insulin", "setting": "[1]; [7]", "result": 7.96, "unit": "uIU/mL"}, {"measurement": "Tmax blood insulin", "setting": "[1]; [7]", "result": 90, "unit": "min"}, {"measurement": "Cmax blood insulin", "setting": "[1]; [8]", "result": 48.77, "unit": "uIU/mL"}, {"measurement": "Tmax blood insulin", "setting": "[1]; [8]", "result": 40, "unit": "min"}, {"measurement": "Cmax blood insulin", "setting": "[1]; [9]", "result": 40.93, "unit": "uIU/mL"}, {"measurement": "Tmax blood insulin", "setting": "[1]; [9]", "result": 20, "unit": "min"}, {"measurement": "Cmax blood insulin", "setting": "[1]; [10]", "result": 85.38, "unit": "uIU/mL"}, {"measurement": "Tmax blood insulin", "setting": "[1]; [10]", "result": 40, "unit": "min"}, {"measurement": "Cmax blood insulin", "setting": "[1]; [11]", "result": 207.96, "unit": "uIU/mL"}, {"measurement": "Tmax blood insulin", "setting": "[1]; [11]", "result": 40, "unit": "min"}, {"measurement": "Cmax blood insulin", "setting": "[1]; [12]", "result": 126.39, "unit": "uIU/mL"}, {"measurement": "Tmax blood insulin", "setting": "[1]; [12]", "result": 90, "unit": "min"}, {"measurement": "Cmax blood insulin", "setting": "[1]; [13]", "result": 451.00, "unit": "uIU/mL"}, {"measurement": "Tmax blood insulin", "setting": "[1]; [13]", "result": 50, "unit": "min"}, {"measurement": "Cmax blood insulin", "setting": "[1]; [14]", "result": 60.74, "unit": "uIU/mL"}, {"measurement": "Tmax blood insulin", "setting": "[1]; [14]", "result": 180, "unit": "min"}, {"measurement": "Cmax blood insulin", "setting": "[1]; [15]", "result": 354.00, "unit": "uIU/mL"}, {"measurement": "Tmax blood insulin", "setting": "[1]; [15]", "result": 105, "unit": "min"}, {"measurement": "Cmax blood insulin", "setting": "[1]; [16]", "result": 356.60, "unit": "uIU/mL"}, {"measurement": "Tmax blood insulin", "setting": "[1]; [16]", "result": 30, "unit": "min"}, {"measurement": "Cmax blood insulin", "setting": "[1]; SC administration, animal 18P21", "result": 65.71, "unit": "uIU/mL"}, {"measurement": "Cmax blood insulin", "setting": "[1]; [17]", "result": 59.18, "unit": "uIU/mL"}, {"measurement": "Tmax blood insulin", "setting": "[1]; [17]", "result": 120, "unit": "min"}, {"measurement": "Cmax blood insulin", "setting": "[1]; [18]", "result": 73.34, "unit": "uIU/mL"}, {"measurement": "Tmax blood insulin", "setting": "[1]; [18]", "result": 50, "unit": "min"}, {"measurement": "maximum plasma concentration Cmax, SC vs IJ group", "setting": "[1]; in vivo, sc", "result": "higher than that of the IJ administration group"}, {"measurement": "mean dextrose infusion rate, IJ vs SC group", "setting": "[2]; first 70 minutes after administration", "result": "higher in the IJ administration group"}, {"measurement": "mean dextrose infusion rate, IJ vs SC group", "setting": "[2]; from 75 minutes to 420 minutes post-administration", "result": "higher in the SC administration group"}]}, {"molecule": "dulaglutide", "values": [{"measurement": "Tmax", "setting": "[3]; ID via 2-nozzle device 320 psig, 1.2 mg, swine plasma", "result": 480, "unit": "min"}, {"measurement": "(AUC)T0-T240 h ± SEM", "setting": "[3]; ID via 2-nozzle device 320 psig, 1.2 mg, one animal below detection limit excluded (N=4)", "result": "4355.86 ± 1094.57 ^a ng · hr/mL"}, {"measurement": "bioavailability relative to IV administration [(AUC)ID/IV*100%]", "setting": "[3]; [19]", "result": "about 33%"}, {"measurement": "bioavailability relative to SC administration [(AUC)ID/SC*100%]", "setting": "[3]; [19]", "result": "about 61%"}, {"measurement": "AUCID (ng·hr/mL±SEM)", "setting": "[3]; ID via ingestible device, 320 psig, 1.2 mg, prior to exclusion of animal no. 8487, ±SEM", "result": "3890.00 ± 94.73", "unit": "ng·h/mL"}, {"measurement": "(AUC)T0-T240 h ± SEM", "setting": "[3]; IV, 1.2 mg", "result": "16429.33 ± 600.93", "unit": "ng·h/mL"}, {"measurement": "(AUC)T0-T240 h ± SEM", "setting": "[3]; SC, 1.2 mg", "result": "8869 ± 887.33", "unit": "ng·h/mL"}, {"measurement": "plasma level of dulaglutide", "setting": "[3]; one animal in Group 1 (no. 8487; ID)", "result": "below the limit of detection of the ELISA assay"}]}, {"molecule": "glucagon", "values": [{"measurement": "Bioavail.", "setting": "[4]", "result": 100.0, "unit": "%"}]}, {"molecule": "somatropin", "values": [{"measurement": "Bioavail.", "setting": "[4]", "result": 80.5, "unit": "%"}]}, {"molecule": "concizumab (antibody, chains of the INN, looked up, V domains shown) VH: EVQLVESGGGLVKPGGSLRLSCAASGFTFSNYAMSWVRQTPEKRLEWVATISRSGSYSYFPDSVQGRFTISRDNAKNSLYLQMNSLRAEDTAVYYCARLGGYDEGDAMDSWGQGTTVTVSS VL: DIVMTQTPLSLSVTPGQPASISCKSSQSLLESDGKTYLNWYLQKPGQSPQLLIYLVSILDSGVPDRFSGSGSGTDFTLKISRVEAEDVGVYYCLQATHFPQTFGGGTKVEIK", "values": [{"measurement": "Bioavail.", "setting": "[4]", "result": 93.0, "unit": "%"}]}]}
